From the supplement of paper PMC10724198
± gives the standard deviation of the averaged measurements.
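Further: PSI is a weighted mean of sequencing reads over stability bins, variants kept only with over 10 reads, mCherry proximal and sfGFP distal, peptide attached via GGGS linker.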

Each sequence was assayed on Saccharomyces cerevisiae (assay: protein stability index of tFT-peptide fusion (C-terminal peptide) (PSI (0-1 scale)); higher = more stable (slower turnover)). Settings: genetic background: wild type; temperature: 30 C.
Description: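 Multiplexed protein stability (MPS) profiling in S. cerevisiae. Random 12-aa peptides (tFT-X12 library) are fused to the C-terminus of a sfGFP-mCherry tandem fluorescent timer, after mCherry and a GGGS linker. Cells are FACS-sorted into 8 mCherry/sfGFP bins and deep-sequenced. The protein stability index (PSI) is the read-weighted bin average, scaled from 0 (unstable) to 1 (stable). Only peptides with >10 reads are reported; cells were grown at 30 °C in SC-His with glucose.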
With THPPLTSRSSPP the protein stability index was 0.654 ± 0.044.
DLGSFVNSGWVT gave a protein stability index of 0.706 ± 0.044.
With PFLFPLLSPFSV the protein stability index was 0.681 ± 0.019.
With LTCRASNGIQAA the protein stability index was 0.677 ± 0.021.
Sequence ERGSRKKKDRRR has a protein stability index of 0.639 ± 0.01.
In the case of SVVVWRWVCGWS, the protein stability index is reported as 0.549 ± 0.014.
In the case of VDSLETDVLKYL, the protein stability index is reported as 0.665 ± 0.011.
Sequence LGYSYHGVASRG has a protein stability index of 0.698 ± 0.013.
FRSFGYSGSMLA was tested, and the protein stability index was 0.6902 ± 0.0013.
For PSPPPSLLPTPP, the protein stability index was 0.679 ± 0.063.
With TCFWFTCSDPFF the protein stability index was 0.773 ± 0.096.
For AQSRTCPMPLPA, the protein stability index was 0.719 ± 0.025.
Sequence RTLHKKRLLAHR has a protein stability index of 0.693 ± 0.041.
With PSNLNASLASRV the protein stability index was 0.655 ± 0.015.
Work on ISPSASTSRPFQ yielded a protein stability index of 0.697 ± 0.11.
EGGERGSKIVDT showed a protein stability index of 0.593 ± 0.029.
Sequence PLVFSTSLCVSE has a protein stability index of 0.666 ± 0.0093.
In the case of TQNRGLSSFRAF, the protein stability index is reported as 0.691 ± 0.035.
In the case of LLPLPPPPLFLP, the protein stability index is reported as 0.705 ± 0.011.
CSPCSFCDLVSH showed a protein stability index of 0.691 ± 0.03.
In the case of YNRALPGGQAML, the protein stability index is reported as 0.795 ± 0.039.
Sequence LAGRPSTTRAFR has a protein stability index of 0.59 ± 0.027.
LWCPLLTSFPSY was tested, and the protein stability index was 0.726 ± 0.078.
LSPRSSGCPRWF showed a protein stability index of 0.677 ± 0.019.
Work on GFCLGSLPQRLD yielded a protein stability index of 0.65 ± 0.019.
In the case of KGKRKETKKTKG, the protein stability index is reported as 0.667 ± 0.017.
In the case of IARKCLTGGGVS, the protein stability index is reported as 0.696 ± 0.065.
In the case of CRWGGGGRRGRG, the protein stability index is reported as 0.723 ± 0.025.
In the case of ERNEERKATTRS, the protein stability index is reported as 0.726 ± 0.067.
RDNNSNEMGQAI was tested, and the protein stability index was 0.723 ± 0.016.
Sequence RIYDNKNTGIYH has a protein stability index of 0.707 ± 0.022.
VVSFGRIGGVGR was tested, and the protein stability index was 0.675 ± 0.027.
With RPELGLCAGDTN the protein stability index was 0.673 ± 0.061.
Work on TLAPVRAFVEFR yielded a protein stability index of 0.656 ± 0.022.
Sequence FSVFFSPQRGCM has a protein stability index of 0.759 ± 0.1.
Work on LSSGLLIFPIVF yielded a protein stability index of 0.631 ± 0.031.
SEPCSASLSVSL gave a protein stability index of 0.64 ± 0.045.
With TCAPTRISRTPG the protein stability index was 0.6883 ± 0.00073.
ASPCTVAQDPRT gave a protein stability index of 0.621 ± 0.023.
VGGACGLSGGLV was tested, and the protein stability index was 0.652 ± 0.062.
For KERKHKRTRQQT, the protein stability index was 0.666 ± 0.021.
Sequence PPPALTHLLPLP has a protein stability index of 0.678 ± 0.058.
In the case of PPPLPPFPPAPP, the protein stability index is reported as 0.642 ± 0.012.
SSRRNNIPKRYK showed a protein stability index of 0.713 ± 0.031.
Work on LASGSVSCFWSG yielded a protein stability index of 0.71 ± 0.021.
Work on TLDTCVPGANTF yielded a protein stability index of 0.7127 ± 0.001.
For ESFGGKAGRDSM, the protein stability index was 0.772 ± 0.049.
WGCVGVVGLFSG gave a protein stability index of 0.656 ± 0.047.
VFQRFLLFTISP was tested, and the protein stability index was 0.61 ± 0.014.
VRWTVAWAVGAT showed a protein stability index of 0.689 ± 0.12.
In the case of GRTNQKKEWIIR, the protein stability index is reported as 0.718 ± 0.01.
In the case of AIEKKVNQTPFK, the protein stability index is reported as 0.659 ± 0.034.
In the case of PPSPPPPPASPP, the protein stability index is reported as 0.6805 ± 0.0015.
Sequence FLLVHIFSLFCL has a protein stability index of 0.547 ± 0.013.
Sequence GGAVGYRLVACD has a protein stability index of 0.656 ± 0.11.
In the case of RASFLLPPPAPP, the protein stability index is reported as 0.6311 ± 0.0049.
LLPPPPPPTLYP showed a protein stability index of 0.699 ± 0.016.
PTMKLPLLSCAR showed a protein stability index of 0.602 ± 0.091.
Work on HLFPSPPPSTLP yielded a protein stability index of 0.495 ± 0.045.
With LIGALSDCGFLG the protein stability index was 0.683 ± 0.031.
CPGGRKPRQTAG was tested, and the protein stability index was 0.679 ± 0.14.
With PPLPCATLPSHS the protein stability index was 0.706 ± 0.013.
GPCPHLGLVVES was tested, and the protein stability index was 0.703 ± 0.34.
PHPPSDLLPYRP was tested, and the protein stability index was 0.691 ± 0.022.
In the case of SSPPPLPPSPPP, the protein stability index is reported as 0.673 ± 0.019.
For SWYSRARMAGEG, the protein stability index was 0.652 ± 0.0093.
In the case of LRLATTLFPLSF, the protein stability index is reported as 0.797 ± 0.12.
With LFPFPSPLPPPL the protein stability index was 0.766 ± 0.0092.
VELCLREKQIQL showed a protein stability index of 0.6749 ± 0.0039.
In the case of TQVGLGSFYSLG, the protein stability index is reported as 0.697 ± 0.079.
NAHHSASPSHCF was tested, and the protein stability index was 0.6471 ± 0.0059.
Sequence LPPFFPLLSPPF has a protein stability index of 0.664 ± 0.031.
In the case of SKKLSMNIIITN, the protein stability index is reported as 0.653 ± 0.0047.
Sequence HFQASRLLCEGD has a protein stability index of 0.638 ± 0.026.
Sequence EIVTTEINKKTN has a protein stability index of 0.7115 ± 0.004.
SHKPDLTNVRFV gave a protein stability index of 0.707 ± 0.044.
In the case of PPLSFDTSRVAP, the protein stability index is reported as 0.677 ± 0.049.
With LFSCLHCLFSCQ the protein stability index was 0.616 ± 0.091.
Sequence PTGQEFYRGGTR has a protein stability index of 0.6927 ± 0.0047.
Work on RSRSELRVFCTS yielded a protein stability index of 0.556 ± 0.011.
Sequence SSVQVSMGTAAG has a protein stability index of 0.681 ± 0.036.
In the case of FPGFHPIFPPPL, the protein stability index is reported as 0.664 ± 0.093.
TLTPPPSTSLPP was tested, and the protein stability index was 0.645 ± 0.067.
Work on INGICDPQANSR yielded a protein stability index of 0.71 ± 0.027.
VGGEGGLGVRPR showed a protein stability index of 0.662 ± 0.033.
Work on TKIKETTKKKQL yielded a protein stability index of 0.522 ± 0.059.
LVSACIRFPPSH gave a protein stability index of 0.716 ± 0.079.
ARAAHLASRGLP gave a protein stability index of 0.689 ± 0.037.
SGGRSPYLLVGL gave a protein stability index of 0.725 ± 0.053.
In the case of SVGLLLSPFPPL, the protein stability index is reported as 0.6882 ± 0.0063.
ERKKKNPSTTRR showed a protein stability index of 0.684 ± 0.0086.
For PPLPPSSMPPSH, the protein stability index was 0.685 ± 0.035.
PPPSPPRPLLPV showed a protein stability index of 0.701 ± 0.023.
Sequence RPAVPSPRPPPP has a protein stability index of 0.674 ± 0.029.
With SRWTFSFYRNLD the protein stability index was 0.683 ± 0.053.
PPHLPPPPPVPA gave a protein stability index of 0.5751 ± 0.0052.
Work on PPRRPSPPSPHP yielded a protein stability index of 0.67196 ± 0.00055.
Sequence PPYAPSPSPPSH has a protein stability index of 0.6936 ± 0.0029.
